One block for each binder: values may come before it.
Experiments:
[1] = molecular target: Taxol-stabilized microtubules polymerised from bovine tubulin (bovine) (UniProt Q6B856); assay: wide-field fluorescence microscopy of labelled protein on microtubules; 1 µM TMR-labeled She1 construct preincubated with 60 nM Taxol-stabilized HiLyte 488–labeled MTs, room temperature, 20 min, MAP-binding buffer with 150 mM KCl and 20 µM Taxol; MTs held in a flow chamber by antitubulin antibody; bound TMR fluorescence on the MT measured
[2] = molecular target: T1, full-length She1 (She1-FL), HALO-tagged (S. cerevisiae), P38200; assay: negative-stain EM; purified She1-FL at 4 µM on carbon-coated grids, 0.75% uranyl formate; conditions: remark: other sources report otherwise
T1 chain: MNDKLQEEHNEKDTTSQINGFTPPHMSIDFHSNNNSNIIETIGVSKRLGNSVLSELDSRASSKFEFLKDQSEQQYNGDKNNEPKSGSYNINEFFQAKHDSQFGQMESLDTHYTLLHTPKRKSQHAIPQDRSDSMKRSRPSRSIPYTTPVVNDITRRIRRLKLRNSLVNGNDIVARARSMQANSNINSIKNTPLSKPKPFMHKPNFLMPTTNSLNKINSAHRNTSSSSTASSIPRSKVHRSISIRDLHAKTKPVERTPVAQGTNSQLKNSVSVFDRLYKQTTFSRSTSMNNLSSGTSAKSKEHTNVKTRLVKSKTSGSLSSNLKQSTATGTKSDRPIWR

[3] = molecular target: Taxol-stabilized microtubules polymerised from bovine tubulin (bovine) (UniProt Q6B856); assay: co-sedimentation; low-speed microfuge pelleting (15,871 g, 10 min, room temperature); 5 µM She1-C–TMR with varying concentrations of Taxol-stabilized MTs, MAP buffer with 50 mM KCl; quadratic fit, apparent dissociation constant; stoichiometry from the saturation point

mean TMR fluorescence on MTs [1]: 22000 a.u.
B1: full-length She1 (She1-FL), HALO-tagged (natural protein)
chain: T1 chain
modifications: HaloTag TMR ligand (MT-binding and cross-linking assays) or HaloTag Alexa Fluor 488 ligand (ultracentrifugation) on the HALO tag

stoichiometry N [2]: 6
B2: full-length She1 (She1-FL), HALO-tagged, P38200 1-338 (natural protein)
chain: T1 chain
modifications: here or on the partner: HaloTag TMR ligand (MT-binding and cross-linking assays) or HaloTag Alexa Fluor 488 ligand (ultracentrifugation) on the HALO tag; HaloTag TMR ligand (MT-binding and cross-linking assays) or HaloTag Alexa Fluor 488 ligand (ultracentrifugation) on the HALO tag

mean TMR fluorescence on MTs [1]: 21000 a.u.
stoichiometry N (She1-C–TMR per tubulin) [3]: 1
B3: She1-C, C-terminal 194–338 aa of She1, HALO-tagged (domain or fragment)
chain: SKPKPFMHKPNFLMPTTNSLNKINSAHRNTSSSSTASSIPRSKVHRSISIRDLHAKTKPVERTPVAQGTNSQLKNSVSVFDRLYKQTTFSRSTSMNNLSSGTSAKSKEHTNVKTRLVKSKTSGSLSSNLKQSTATGTKSDRPIWR
modifications: HaloTag TMR ligand on the HALO tag where labelled

Reference: article PMC5584168
